Data on eight molecules can be found in patent US9255257B2, “PmST1 mutants for chemoenzymatic synthesis of sialyl lewis X compounds” (THE REGENTS OF THE UNIVERSITY OF CALIFORNIA, priority 2011, dated 2016).

A word on the Km: it is the concentration of substrate that gives half-maximal velocity.

Data set [1] relates to Cc1cc(=O)oc2cc(O[C@@H]3O[C@H](CO)[C@@H](O[C@@H]4O[C@H](CO)[C@H](O)[C@H](O)[C@H]4O)[C@H](O)[C@H]3O)ccc12. The experiment in a line: α2-3-sialyltransferase activity, LacβMU as acceptor. It counts as biochemical, Pasteurella multocida. Particulars: other: apparent, acceptor, CMP-Neu5Ac 1 mM, Tris-HCl pH 8.5, 37° C. On the procedure:
(§1) To obtain the apparent kinetic parameters of LacβMU as the acceptor for the α2-3-sialyltransferase activity, the kinetic assays were performed in duplicate in reaction mixtures of 10 μL containing Tris-HCl buffer (100 mM, pH 8.5), a fixed concentration of CMP-Neu5Ac (1 mM), different concentrations of LacβMU (0.2, 0.5, 1.0, 2.0, 5.0, and 9.0 mM) and the mutant proteins (2 μg mL^−1 of E271F, 2 μg mL^−1 of R313Y, and 1.6 μg mL^−1 of E271F/R313Y). All reactions were allowed to proceed at 37° C. for 5 min (E271F), 7 min (R313Y), and 10 min (E271F/R313Y). The apparent kinetic parameters were obtained by fitting the experimental data (the average values of duplicate assay results) into the Michaelis-Menten equation using Grafit 5.0.
(§2) To obtain the apparent kinetic parameters of CMP-Neu5Ac as the donor for the α2-3-sialyltransferase activity, the kinetic assays were performed in duplicate in reaction mixtures of 10 μL containing Tris-HCl buffer (100 mM, pH 8.5), a fixed concentration of LacβMU (1 mM), different concentrations of CMP-Neu5Ac (0.1, 0.2, 0.5, 1.0, 2.0, 5.0, 10.0 and 20.0 mM) and the mutant proteins (2 μg mL^−1 of E271F, 2 μg mL^−1 of R313Y, and 1.6 μg mL^−1 of E271F/R313Y). All reactions were allowed to proceed at 37° C. for 2 min (E271F), 7 min (R313Y), and 5 min (E271F/R313Y). The apparent kinetic parameters were obtained by fitting the experimental data (the average values of duplicate assay results) into the Michaelis-Menten equation using Grafit 5.0.
(§3) All the sialidase and α2-3-sialyltransferase assays were performed in an HPLC system. Reactions were stopped by adding 10 μL of ethanol. After necessary dilutions were performed to adjust the concentrations of the fluorescent-labeled compounds, the samples were then kept on ice until aliquots of 8 μL were injected and analyzed by a Shimadzu LC-6AD system equipped with a membrane on-line degasser, a temperature control unit, and a fluorescence detector (Shimadzu RF-10AXL). A reverse-phase Premier C18 column (250×4.6 mm i.d., 5 μm particle size, Shimadzu) protected with a C18 guard column cartridge was used. The mobile phase was 25% acetonitrile. The fluorescent compounds LacβMU and Neu5Acα2-3LacβMU were detected by excitation at 325 nm and emission at 372 nm.

In data set [2] the test system is CC(=O)N[C@H]1[C@H]([C@H](O)[C@H](O)CO)O[C@](OP(=O)(O)OC[C@H]2O[C@@H](n3ccc(N)nc3=O)[C@H](O)[C@@H]2O)(C(=O)O)C[C@@H]1O. The data set is described as above. It counts as biochemical, Pasteurella multocida. Particulars: other: apparent, donor, LacβMU 1 mM, Tris-HCl pH 8.5, 37° C. On the procedure:
as §1, §2, §3

The subject of data set [3] is CC(=O)N[C@H]1[C@H]([C@H](O)[C@H](O)CO)O[C@@](O[C@H]2[C@@H](O)[C@@H](CO)O[C@@H](O[C@H]3[C@H](O)[C@@H](O)[C@H](Oc4ccc5c(C)cc(=O)oc5c4)O[C@@H]3CO)[C@@H]2O)(C(=O)O)C[C@@H]1O. Put plainly: α2-3-sialidase activity, Neu5Acα2-3LacβMU as substrate. It counts as biochemical, Pasteurella multocida. Particulars: other: apparent, MES pH 5.5, 37° C. How it is done:
Site-directed mutagenesis. Site-directed mutagenesis was carried out using the QuikChange multi-site-directed mutagenesis kit from Stratagene according to the manufacturer's protocol. The primers used were 5′-[…] -3′ (SEQ ID NO:32) for E271F and 5′-[…]-3′ (SEQ ID NO:33) for R313Y. The sites of mutations are underlined.
Protein Expression and Purification. The plasmids containing the mutant genes were transformed into E. coli BL21 (DE3). The E. coli cells were cultured in LB-rich media (10 g L^−1 tryptone, 5 g L^−1 yeast extract, and 10 g L^−1 NaCl) supplemented with ampicillin (100 μg mL^−1). Overexpression of the mutant proteins was achieved by adding 0.1 mM of isopropyl-1-thio-β-D-galactopyranoside (IPTG) to the E. coli culture when its OD600 nm reached 0.8. […]
All the sialidase and α2-3-sialyltransferase assays were performed in an HPLC system. […] After necessary dilutions were performed to adjust the concentrations of the fluorescent-labeled compounds, the samples were then kept on ice until aliquots of 8 μL were injected and analyzed by a Shimadzu LC-6AD system equipped with a membrane on-line degasser, a temperature control unit, and a fluorescence detector (Shimadzu RF-10AXL). […] The fluorescent compounds LacβMU and Neu5Acα2-3LacβMU were detected by excitation at 325 nm and emission at 372 nm.

Data set [4] concerns CC(=O)N[C@H]1[C@H]([C@H](O)[C@H](O)CO)O[C@](OP(=O)(O)OC[C@H]2O[C@@H](n3ccc(N)nc3=O)[C@H](O)[C@@H]2O)(C(=O)O)C[C@@H]1O. The experiment in a line: purified protein, by the assay type. Particulars: other: apparent, donor hydrolysis, H311A, Tris-HCl pH 8.5, 37° C., 20 min.
Description: (§4) The reactions were stopped by adding 10 μL of pre-chilled ethanol. The mixtures were incubated on ice for 30 min and centrifuged at 13,000 rpm for 5 min. The supernatants were diluted with borate buffer (25 mM, pH 9.5) and aliquotes of 5 μL each were injected to a Beckman Coulter P/ACE™ MDQ Capillary Electrophoresis system equipped with a capillary (60 cm×75 μm i.d.) and monitored at 254 nm. The apparent kinetic parameters were obtained by fitting the experimental data (the average values of duplicate assay results) into the Michaelis-Menten equation using Grafit 5.0.
Data set [5] is described as follows: Apparent kinetics of the α2-3-sialidase activity (HPLC, fluorescent sialoside substrate). It counts as biochemical. The note with it: substrate Neu5Acα2-3LacβMU. How it is done:
All the sialidase and α2-3-sialyltransferase assays were performed in an HPLC system. Reactions were stopped by adding 10 μL of ethanol. […] The mobile phase was 25% acetonitrile.
Kinetics of the α2-3-sialidase activity of PmST1 mutants.

Data set [6] can be described thus: Kinetics of the donor (CMP-Neu5Ac) hydrolysis activity by capillary electrophoresis. It counts as biochemical.
Description: as §4

Regarding “Pasteurella multocida PmST1 mutant E271F of SEQ ID NO: 13 (E247F of Δ24PmST1, SEQ ID NO: 7) (Pasteurella multocida; E271F)”, the Km was found to be 710 ± 120 µM in data set [1] (E271F); 180 ± 10 µM in data set [2] (E271F); 5700 ± 900 µM in data set [3] (E271F, 1 min).
For “Pasteurella multocida PmST1 mutant R313Y of SEQ ID NO: 13 (R289Y of Δ24PmST1, SEQ ID NO: 9) (Pasteurella multocida; R313Y)”, the Km in data set [1] (R313Y) came to 670 ± 50 µM; in data set [2] (R313Y) it was 620 ± 40 µM; in data set [3] (R313Y, 25 min) it was 51000 ± 5000 µM.
On to “Pasteurella multocida PmST1 double mutant E271F/R313Y of SEQ ID NO: 13 (E247F/R289Y of Δ24PmST1, SEQ ID NO: 11) (Pasteurella multocida; E271F/R313Y)”, for which the Michaelis-Menten constant (Km) was found to be 540 ± 40 µM in data set [1] (E271F/R313Y) and 340 ± 20 µM in data set [2] (E271F/R313Y).
As to “Pasteurella multocida PmST1 mutant H311A (Pasteurella multocida; H311A)”, the Km in data set [4] is 1800 ± 200 µM.

B1: D141A (protein)
chain: MKNRRLNFKLFFLIIFSLFSTLSWSKTITLYLDPASLPALNQLMDFTQNNEDKTHPRIFGLSRFKIPDNIITQYQNIHFVELKDNRPTEALFTILDQYPGNIELNIHLNIAHSVQLIRPILAYRFKHLDRVSIQQLNLYDAGSMEYVDLEKEENKDISAEIKQAEKQLSHYLLTGKIKFDNPTIARYVWQSAFPVKYHFLSTDYFEKAEFLQPLKEYLAENYQKMDWTAYQQLTPEQQAFYLTLVGFNDEVKQSLEVQQAKFIFTGTTTWEGNTDVREYYAQQQLNLLNHFTQAEGDLFIGDHYKIYFKGHPRGGEINDYILNNAKNITNIPANISFEVLMMTGLLPDKVGGVASSLYFSLPKEKISHIIFTSNKQVKSKEDALNNPYVKVMRRLGIIDESQVIFWDSLKQL
Take B1: the “decrease of α2-3-sialidase activity (catalytic efficiency kcat/Km) compared to wild-type PmST1” value (“decrease of α2-3-sialidase activity” below) in data set [5] is on record as “about 7,300 fold”. Besides, the “decrease of efficiency of CMP-Neu5Ac (donor) hydrolysis activity compared to WT” value in data set [6] is recorded as 1,000 fold.

B2: E271F (protein, listed as Pasteurella multocida)
chain: MKNRRLNFKLFFLIIFSLFSTLSWSKTITLYLDPASLPALNQLMDFTQNNEDKTHPRIFGLSRFKIPDNIITQYQNIHFVELKDNRPTEALFTILDQYPGNIELNIHLNIAHSVQLIRPILAYRFKHLDRVSIQQLNLYDDGSMEYVDLEKEENKDISAEIKQAEKQLSHYLLTGKIKFDNPTIARYVWQSAFPVKYHFLSTDYFEKAEFLQPLKEYLAENYQKMDWTAYQQLTPEQQAFYLTLVGFNDEVKQSLEVQQAKFIFTGTTTWFGNTDVREYYAQQQLNLLNHFTQAEGDLFIGDHYKIYFKGHPRGGEINDYILNNAKNITNIPANISFEVLMMTGLLPDKVGGVASSLYFSLPKEKISHIIFTSNKQVKSKEDALNNPYVKVMRRLGIIDESQVIFWDSLKQL
modifications: PmST1 wild-type glycosyltransferase family 80 (GT80), GT80 sialyltransferase, Pm0188Ph
Turning to B2, in data set [5], the “decrease in sialidase Km value compared to wild-type PmST1” value stood at 4.2 fold, the “decrease in sialidase kcat (turnover number) compared to wild-type PmST1” value amounted to 250 fold and the “decrease of α2-3-sialidase activity” value is “about 59 fold”.

B3: H311A (protein)
chain: MKNRRLNFKLFFLIIFSLFSTLSWSKTITLYLDPASLPALNQLMDFTQNNEDKTHPRIFGLSRFKIPDNIITQYQNIHFVELKDNRPTEALFTILDQYPGNIELNIHLNIAHSVQLIRPILAYRFKHLDRVSIQQLNLYDDGSMEYVDLEKEENKDISAEIKQAEKQLSHYLLTGKIKFDNPTIARYVWQSAFPVKYHFLSTDYFEKAEFLQPLKEYLAENYQKMDWTAYQQLTPEQQAFYLTLVGFNDEVKQSLEVQQAKFIFTGTTTWEGNTDVREYYAQQQLNLLNHFTQAEGDLFIGDHYKIYFKGAPRGGEINDYILNNAKNITNIPANISFEVLMMTGLLPDKVGGVASSLYFSLPKEKISHIIFTSNKQVKSKEDALNNPYVKVMRRLGIIDESQVIFWDSLKQL
Regarding B3, the “decrease of efficiency of CMP-Neu5Ac (donor) hydrolysis activity compared to WT” value in data set [6] is listed as 16 fold.

B4: R313Y (protein, listed as Pasteurella multocida)
chain: MKNRRLNFKLFFLIIFSLFSTLSWSKTITLYLDPASLPALNQLMDFTQNNEDKTHPRIFGLSRFKIPDNIITQYQNIHFVELKDNRPTEALFTILDQYPGNIELNIHLNIAHSVQLIRPILAYRFKHLDRVSIQQLNLYDDGSMEYVDLEKEENKDISAEIKQAEKQLSHYLLTGKIKFDNPTIARYVWQSAFPVKYHFLSTDYFEKAEFLQPLKEYLAENYQKMDWTAYQQLTPEQQAFYLTLVGFNDEVKQSLEVQQAKFIFTGTTTWEGNTDVREYYAQQQLNLLNHFTQAEGDLFIGDHYKIYFKGHPYGGEINDYILNNAKNITNIPANISFEVLMMTGLLPDKVGGVASSLYFSLPKEKISHIIFTSNKQVKSKEDALNNPYVKVMRRLGIIDESQVIFWDSLKQL
modifications: PmST1 wild-type glycosyltransferase family 80 (GT80), GT80 sialyltransferase, Pm0188Ph
Turning to B4, in data set [5], the “decrease in sialidase kcat (turnover number) compared to wild-type PmST1” value is on record as 1,278 fold, the “decrease of α2-3-sialidase activity” value is listed as 2,639 fold and the “increase in sialidase Km value compared to wild-type PmST1” value is 2 fold.
